We go through 75 sequences from the supplement of paper PMC7877785.

The nature of the series: self-splicing fitness, log relative to wild type (ln ratio); higher = more splicing; Tetrahymena group I intron in knt gene, E. coli kanamycin selection, DiMSum; sequences stand for … in CUCUCU…GGAGGGAAAAGUUAUCAGGCAUGCACCUGGUAGCUAGUCUUUAAACCAAUAGAUUGCAUCGGUUUAAAAGGCAAGACCGUCAAAUUGCGGGAAAGGGGUCAACAGCCGUUCAGUACCAAGUCUCAGGGGAAACUUUGAGAUGGCCUUGCAAAGGGUAUGGUAAUAAGCUGACGGACAUGGUCCUAACCACGCAGCCAAGUCCUAAGUCAACAGAUCUUCUGUUGAUAUGGAUGCAGUUCACAGACUAAAUGUCGGUCGGGGAAGAUGUAUUCUUCUCAUAAGAUAUAGUCGGACCUCUCCUUAAUGGGAGCUAGCGGAUGAAGUGAUGCAACACUGGAGCCGCUGGGAACUAAUUUGUAUGCGAAAGUAUAUUGAUUAGUUUUGGAGUACUCGUGGUCG
In a few lines:
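Library with all eight P1ex-region intron nucleotides randomised, intron inside the knt kanamycin-resistance gene on pET-22b(+), in E. coli BL21(DE3). Cells grew overnight at 37°C or 30°C on LB agar with or without 25 μg/mL kanamycin (plus 100 μg/mL carbenicillin, 50 μM IPTG, 0.2% rhamnose), in six replicate transformations. Pooled colonies were amplicon-sequenced on Illumina HiSeq 2500. DiMSum fitness is the error-weighted combination of wild-type-normalised replicate fold changes, kanamycin versus none.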

± gives the uncertainty stated by the source.

With CUAAAGCAAUAUUACGUUCA, the “self-splicing fitness (ln)” value reads like this: (30 °C) -3.24 ± 0.12; (37 °C) -1.56 ± 0.15.

As to AGACAGCAAUAUUACGGAGC, the “self-splicing fitness (ln)” value is -3.94 ± 0.17 (30 °C) and -2.93 ± 0.24 (37 °C). The like results for AAAGAGCAAUAUUACGCCUA were, in that order, -2.22 ± 0.21 and -1.81 ± 0.25. As to GCGAAGCAAUAUUACGCCUC, the “self-splicing fitness (ln)” value (30 °C) is -2.7 ± 0.42. UUCAAGCAAUAUUACGCUUC: the “self-splicing fitness (ln)” value (30 °C) was -3.09 ± 0.22 and the “self-splicing fitness (ln)” value (37 °C) is -2.8 ± 0.44.

For AGAAAGCAAUAUUACGCCUG, the “self-splicing fitness (ln)” value (30 °C) was -0.436 ± 0.11 and the “self-splicing fitness (ln)” value (37 °C) is -0.62 ± 0.14. The like results for CUGUAGCAAUAUUACGCUUU were, in that order, -3.83 ± 0.17 and -3.19 ± 0.21. On to UUACAGCAAUAUUACGUCUU, for which the “self-splicing fitness (ln)” value by setting is: (30 °C) -1.49 ± 0.069; (37 °C) -0.819 ± 0.09.

As to UUCGAGCAAUAUUACGAUAG, the “self-splicing fitness (ln)” value was -2.73 ± 0.44 (30 °C) and -1.77 ± 0.25 (37 °C).

With AGGGAGCAAUAUUACGCCGA, under “30 °C”, the “self-splicing fitness (ln)” value is -2.38 ± 0.25. Turning to AUCGAGCAAUAUUACGGACG, the “self-splicing fitness (ln)” value is -2.42 ± 0.17 (30 °C) and -2.96 ± 0.2 (37 °C). The like results for GAGUAGCAAUAUUACGUCCC were, in that order, -0.805 ± 0.21 and -0.255 ± 0.23. The like results for GACUAGCAAUAUUACGCAGC were, in that order, -3.5 ± 0.23 and -2.2 ± 0.31. The corresponding values for CUUCAGCAAUAUUACGCAAA are -2.99 ± 0.26 and -2.21 ± 0.33. With CUUCAGCAAUAUUACGGACU, the “self-splicing fitness (ln)” value was -2.26 ± 0.16 (30 °C) and -2.66 ± 0.27 (37 °C).

On to CUGUAGCAAUAUUACGCGGC, for which the “self-splicing fitness (ln)” value reads like this: (30 °C) -2.51 ± 0.47; (37 °C) -2.14 ± 0.3. The like results for UAUGAGCAAUAUUACGUGUA were, in that order, -2.13 ± 0.16 and -1.32 ± 0.12.

Regarding AAGUAGCAAUAUUACGCUGC, under “37 °C”, the “self-splicing fitness (ln)” value is -0.747 ± 0.19. On to CCAUAGCAAUAUUACGGUCA, for which the “self-splicing fitness (ln)” value was -3 ± 0.16 (30 °C) and -1.44 ± 0.2 (37 °C). The corresponding values for UUUCAGCAAUAUUACGGGCC are -4.27 ± 0.46 and -2.37 ± 0.37.

Regarding AUUUAGCAAUAUUACGAUGU, the “self-splicing fitness (ln)” value was -1.08 ± 0.096 (30 °C) and 0.369 ± 0.11 (37 °C).

Take GUUGAGCAAUAUUACGCACC: the “self-splicing fitness (ln)” value is -2.94 ± 0.16 (30 °C) and -1.67 ± 0.14 (37 °C). For AACGAGCAAUAUUACGGCUC, the “self-splicing fitness (ln)” value (30 °C) was -2.49 ± 0.44.

CGGGAGCAAUAUUACGUAUC: the “self-splicing fitness (ln)” value (30 °C) was -2.58 ± 0.49. On to CCAAAGCAAUAUUACGGACU, for which the “self-splicing fitness (ln)” value (30 °C) is -2.27 ± 0.13 and the “self-splicing fitness (ln)” value (37 °C) is -2.84 ± 0.22. The like results for GUUCAGCAAUAUUACGUACA were, in that order, -1.13 ± 0.11 and -0.94 ± 0.11.

Take AGUAAGCAAUAUUACGGCGU: the “self-splicing fitness (ln)” value was -0.683 ± 0.073 (30 °C) and 0.246 ± 0.095 (37 °C). Regarding UACAAGCAAUAUUACGUCCG, the “self-splicing fitness (ln)” value reads like this: (30 °C) -0.564 ± 0.068; (37 °C) -0.0254 ± 0.091. On to GACCAGCAAUAUUACGACGA, for which the “self-splicing fitness (ln)” value runs as follows: (30 °C) -0.236 ± 0.091; (37 °C) 0.15 ± 0.1.

In the case of CAAGAGCAAUAUUACGUGAA, the “self-splicing fitness (ln)” value is -3.89 ± 0.22 (30 °C) and -2.75 ± 0.23 (37 °C). Consider GUGAAGCAAUAUUACGACUU, for which the “self-splicing fitness (ln)” value reads like this: (30 °C) -0.643 ± 0.056; (37 °C) -0.276 ± 0.084. The like results for AGGGAGCAAUAUUACGGCUU were, in that order, -3.29 ± 0.25 and -1.11 ± 0.35. The corresponding values for CGGUAGCAAUAUUACGACUG are -2.54 ± 0.28 and -1.86 ± 0.32. As for CGAAAGCAAUAUUACGAGAG, the “self-splicing fitness (ln)” value was -3.12 ± 0.17 (30 °C) and -2.58 ± 0.18 (37 °C). The corresponding values for ACUCAGCAAUAUUACGGGCG are -0.574 ± 0.044 and 0.27 ± 0.062. Take CGCCAGCAAUAUUACGAGGG: the “self-splicing fitness (ln)” value (30 °C) was -3.28 ± 0.17 and the “self-splicing fitness (ln)” value (37 °C) was -1.83 ± 0.18. For the sequence CAUUAGCAAUAUUACGAAUA, the “self-splicing fitness (ln)” value (30 °C) is -2.12 ± 0.14 and the “self-splicing fitness (ln)” value (37 °C) was -0.64 ± 0.13. Consider GGGGAGCAAUAUUACGACGC, for which the “self-splicing fitness (ln)” value is, setting by setting: (30 °C) -0.34 ± 0.15; (37 °C) 0.117 ± 0.2. Take GGAGAGCAAUAUUACGAGGG: the “self-splicing fitness (ln)” value (30 °C) is -1.99 ± 0.38. For the sequence AUGCAGCAAUAUUACGCCCC, the “self-splicing fitness (ln)” value was -0.386 ± 0.27 (30 °C) and -1.04 ± 0.27 (37 °C). The corresponding values for CAAUAGCAAUAUUACGCAGG are -1.75 ± 0.13 and -0.433 ± 0.11. The like results for CAUGAGCAAUAUUACGCAAA were, in that order, -3.92 ± 0.38 and -1.97 ± 0.24. The corresponding values for GCUCAGCAAUAUUACGCGUG are -1.99 ± 0.07 and -1.79 ± 0.089. For GUCAAGCAAUAUUACGCAUA, the “self-splicing fitness (ln)” value is -1.58 ± 0.063 (30 °C) and -0.367 ± 0.06 (37 °C). On to GUCGAGCAAUAUUACGGCGA, for which the “self-splicing fitness (ln)” value is -3.05 ± 0.21 (30 °C) and -1.9 ± 0.25 (37 °C). For UUUGAGCAAUAUUACGGGAU, the “self-splicing fitness (ln)” value reads like this: (30 °C) -2.91 ± 0.2; (37 °C) -3.24 ± 0.32.

For the sequence AGCUAGCAAUAUUACGAAGU, the “self-splicing fitness (ln)” value (30 °C) was -4.06 ± 0.32 and the “self-splicing fitness (ln)” value (37 °C) is -1.73 ± 0.26.

Take GGCGAGCAAUAUUACGGACA: the “self-splicing fitness (ln)” value (30 °C) was -0.299 ± 0.23 and the “self-splicing fitness (ln)” value (37 °C) is -0.824 ± 0.28.

Take UUCGAGCAAUAUUACGUACG: the “self-splicing fitness (ln)” value (30 °C) was -3.15 ± 0.38. CAAUAGCAAUAUUACGAUGU: the “self-splicing fitness (ln)” value runs as follows: (30 °C) -3.19 ± 0.14; (37 °C) -2.32 ± 0.2.

As for AUAUAGCAAUAUUACGUAAG, the “self-splicing fitness (ln)” value (30 °C) is -1.61 ± 0.14 and the “self-splicing fitness (ln)” value (37 °C) was -0.705 ± 0.19. As for CUUCAGCAAUAUUACGCCCC, the “self-splicing fitness (ln)” value (37 °C) was -1.14 ± 0.47. As for UAAAAGCAAUAUUACGCCCU, the “self-splicing fitness (ln)” value is, setting by setting: (30 °C) -0.622 ± 0.095; (37 °C) 0.457 ± 0.15.

Consider ACCGAGCAAUAUUACGAAAA, for which the “self-splicing fitness (ln)” value is -3.51 ± 0.3 (30 °C) and -2.81 ± 0.24 (37 °C). The corresponding values for AUGUAGCAAUAUUACGCAUA are -2.46 ± 0.28 and -1.85 ± 0.26.

Turning to CUCAAGCAAUAUUACGGUGU, the “self-splicing fitness (ln)” value was -3.3 ± 0.12 (30 °C) and -1.31 ± 0.13 (37 °C). The like results for CGUGAGCAAUAUUACGUACA were, in that order, -1.46 ± 0.053 and -0.707 ± 0.059. AUCGAGCAAUAUUACGUUGU: the “self-splicing fitness (ln)” value reads like this: (30 °C) -4 ± 0.26; (37 °C) -3.62 ± 0.31. The corresponding values for UGGUAGCAAUAUUACGUACA are -0.28 ± 0.087 and 0.35 ± 0.12.

Regarding AACCAGCAAUAUUACGGGCG, the “self-splicing fitness (ln)” value is, setting by setting: (30 °C) -0.173 ± 0.068; (37 °C) 0.356 ± 0.081. For the sequence UGGGAGCAAUAUUACGUACA, the “self-splicing fitness (ln)” value was -1.26 ± 0.22 (30 °C) and -0.889 ± 0.42 (37 °C).

With AAUAAGCAAUAUUACGGCGA, the “self-splicing fitness (ln)” value was -0.134 ± 0.079 (30 °C) and -0.274 ± 0.1 (37 °C). The like results for UUAAAGCAAUAUUACGCUGC were, in that order, -2.18 ± 0.15 and -2.71 ± 0.38. As to CGUGAGCAAUAUUACGCCAA, under “30 °C”, the “self-splicing fitness (ln)” value is -3.41 ± 0.36.

Consider ACACAGCAAUAUUACGACAA, for which the “self-splicing fitness (ln)” value (30 °C) is -1.86 ± 0.11 and the “self-splicing fitness (ln)” value (37 °C) was -0.755 ± 0.14. The like results for GGAAAGCAAUAUUACGGUCA were, in that order, -0.418 ± 0.09 and 0.154 ± 0.1. The like results for GCCAAGCAAUAUUACGCCGA were, in that order, -1.64 ± 0.15 and -0.102 ± 0.11. As to AUACAGCAAUAUUACGCGGA, the “self-splicing fitness (ln)” value reads like this: (30 °C) -2.02 ± 0.17; (37 °C) -1.74 ± 0.14. Consider UCACAGCAAUAUUACGAAGC, for which the “self-splicing fitness (ln)” value (30 °C) is -3.07 ± 0.21. On to UACUAGCAAUAUUACGUACA, for which the “self-splicing fitness (ln)” value reads like this: (30 °C) -1.56 ± 0.12; (37 °C) -0.448 ± 0.13. On to CCAUAGCAAUAUUACGCUGA, for which the “self-splicing fitness (ln)” value was -3.52 ± 0.41 (30 °C) and -1.99 ± 0.28 (37 °C). The corresponding values for CAGCAGCAAUAUUACGACAA are -3.11 ± 0.39 and -1.67 ± 0.23. For AGUUAGCAAUAUUACGACGC, the “self-splicing fitness (ln)” value (30 °C) is -0.0216 ± 0.11 and the “self-splicing fitness (ln)” value (37 °C) was found to be 0.486 ± 0.13. With GAGGAGCAAUAUUACGCAAC, the “self-splicing fitness (ln)” value (30 °C) is -2.75 ± 0.38.

Regarding CUAUAGCAAUAUUACGAGGU, the “self-splicing fitness (ln)” value is, setting by setting: (30 °C) -4.07 ± 0.42; (37 °C) -3.28 ± 0.42.
